# Reference: article doi:10.1101/2025.07.29.667382 (bioRxiv, 2025)
# Groups on a side chain read outwards from the residue. No end group written: not given here. Alexa‑547 = not defined here
# T1: Snx3 (recombinant, without fluorescent tag) (yeast, UniProt Q08826 1-162)
# T1 sequence: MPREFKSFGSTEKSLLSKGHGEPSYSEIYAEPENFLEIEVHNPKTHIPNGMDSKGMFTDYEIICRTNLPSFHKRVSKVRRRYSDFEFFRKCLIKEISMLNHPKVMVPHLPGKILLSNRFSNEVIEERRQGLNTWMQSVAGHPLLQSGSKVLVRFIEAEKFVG
# How the values were obtained:
# [1] = biological target: Retromer^mClover (Vps26-Vps29-Vps35, carrying mClover on Vps29) (yeast, UniProt P40335;P38759;P34110); experiment: coat formation on supported membrane tubes, fluorescence microscopy
# Sequence of Retromer^mClover (Vps26-Vps29-Vps35, carrying mClover on Vps29) (P40335 whole entry, chain 1 of 3): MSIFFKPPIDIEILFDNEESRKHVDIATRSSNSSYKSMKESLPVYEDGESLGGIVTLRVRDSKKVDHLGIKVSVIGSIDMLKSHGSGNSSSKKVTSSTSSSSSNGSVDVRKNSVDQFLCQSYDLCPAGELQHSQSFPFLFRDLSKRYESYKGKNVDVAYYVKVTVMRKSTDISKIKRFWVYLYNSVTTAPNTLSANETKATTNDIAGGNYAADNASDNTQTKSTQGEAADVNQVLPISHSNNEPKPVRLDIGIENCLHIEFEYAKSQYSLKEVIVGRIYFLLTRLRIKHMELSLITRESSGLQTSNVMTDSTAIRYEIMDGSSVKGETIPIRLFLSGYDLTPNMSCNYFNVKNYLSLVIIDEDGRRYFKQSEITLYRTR
# Sequence of Retromer^mClover (Vps26-Vps29-Vps35, carrying mClover on Vps29) (P38759 whole entry, chain 2 of 3): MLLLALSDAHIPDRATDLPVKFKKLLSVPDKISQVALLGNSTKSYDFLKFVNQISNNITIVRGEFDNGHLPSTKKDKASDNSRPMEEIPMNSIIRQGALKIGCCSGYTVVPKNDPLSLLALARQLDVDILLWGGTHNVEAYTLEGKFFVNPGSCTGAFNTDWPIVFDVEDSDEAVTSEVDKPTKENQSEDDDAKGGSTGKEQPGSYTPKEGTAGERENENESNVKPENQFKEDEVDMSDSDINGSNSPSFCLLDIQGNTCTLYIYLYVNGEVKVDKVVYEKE
# Sequence of Retromer^mClover (Vps26-Vps29-Vps35, carrying mClover on Vps29) (P34110 whole entry, chain 3 of 3): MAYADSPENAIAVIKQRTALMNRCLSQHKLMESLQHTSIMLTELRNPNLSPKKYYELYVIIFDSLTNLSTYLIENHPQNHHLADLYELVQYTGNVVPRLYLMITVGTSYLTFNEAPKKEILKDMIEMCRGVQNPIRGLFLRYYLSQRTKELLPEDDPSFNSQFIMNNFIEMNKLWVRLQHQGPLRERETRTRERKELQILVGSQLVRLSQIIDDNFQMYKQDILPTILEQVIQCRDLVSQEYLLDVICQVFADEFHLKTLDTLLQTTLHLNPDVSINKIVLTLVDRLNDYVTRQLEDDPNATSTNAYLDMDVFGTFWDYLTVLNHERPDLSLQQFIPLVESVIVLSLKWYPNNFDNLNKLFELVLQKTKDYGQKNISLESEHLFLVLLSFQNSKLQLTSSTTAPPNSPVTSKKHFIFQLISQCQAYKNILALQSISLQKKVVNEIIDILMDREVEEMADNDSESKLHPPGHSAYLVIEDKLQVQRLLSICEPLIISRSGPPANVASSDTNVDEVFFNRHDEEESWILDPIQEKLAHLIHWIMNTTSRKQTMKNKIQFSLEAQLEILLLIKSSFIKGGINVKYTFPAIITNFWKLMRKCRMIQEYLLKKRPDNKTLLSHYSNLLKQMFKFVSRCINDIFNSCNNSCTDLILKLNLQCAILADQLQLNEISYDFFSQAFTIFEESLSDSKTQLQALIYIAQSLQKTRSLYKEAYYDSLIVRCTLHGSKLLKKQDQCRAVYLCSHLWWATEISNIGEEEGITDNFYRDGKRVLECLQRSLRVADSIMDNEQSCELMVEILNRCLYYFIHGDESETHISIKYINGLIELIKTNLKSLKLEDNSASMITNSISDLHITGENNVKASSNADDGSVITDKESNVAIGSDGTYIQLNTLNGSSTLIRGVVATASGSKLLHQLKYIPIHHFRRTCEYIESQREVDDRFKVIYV
# [2] = biological target: T1, Snx3 (recombinant, without fluorescent …); experiment: as above
binding result [1],binding result [2],Binder
binds,,SNX-BAR (Vps5-Vps17) (complex) chain 1: MDYEDNLEAPVWDELNHEGDKTQSLVSNSIESIGQISTNEERKDNELLETTASFADKIDLDSAPEWKDPGLSVAGNPQLEEHDNSKADDLINSLAPEQDPIADLKNSTTQFIATRESGGALFTGNANSPLVFDDTIYDANTSPNTSKSISGRRSGKPRILFDSARAQRNSKRNHSLKAKRTTASDDTIKTPFTDPLKKAEKENEFVEEPLDDRNERRENNEGKFTASVEKNILEQVDRPLYNLPQTGANISSPAEVEENSEKFGKTKIGSKVPPTEKAVAFKVEVKDPVKVGELTSIHVEYTVISESSLLELKYAQVSRRYRDFRWLYRQLQNNHWGKVIPPPPEKQSVGSFKENFIENRRFQMESMLKKICQDPVLQKDKDFLLFLTSDDFSSESKKRAFLTGSGAINDSNDLSEVRISEIQLLGAEDAAEVLKNGGIDAESHKGFMSISFSSLPKYNEADEFFIEKKQKIDELEDNLKKLSKSLEMVDTSRNTLAASTEEFSSMVETLASLNVSEPNSELLNNFADVHKSIKSSLERSSLQETLTMGVMLDDYIRSLASVKAIFNQRSKLGYFLVVIENDMNKKHSQLGKLGQNIHSEKFREMRKEFQTLERRYNLTKKQWQAVGDKIKDEFQGFSTDKIREFRNGMEISLEAAIESQKECIELWETFYQTNL chain 2: MTSAVPYDPYDDLDNNPFAEPQEEDSEPAATTTDGSSSMSEERVGTEQTAASVQDNGTANNIQNGLGEEGNATRSKTSNEHNENQQPSQPSERVILPERSDEKKKYTLLAKVTGLERFGSATGKKENPTIIFDCSTNLPTFRKQQYKNVKKSYEEFHQLFKYLNVAIQESFVPTLPSAYTTFGINSEEDRMKVTRNFQLWFNRLSQDPLIIRNEEVAFFIESDFNTYTPINKSKSLASGLKRKTLKQLAPPYDEITELAEFRPLVKSIYVVSQSLQEKLLRVSRNRKMMVQEENAFGQDFVNLDEHNKLYRRYGKILTAVGDIDSIIATMDMATLYDGLEWIVRDAYAVKEALTNRHFIMRNLVQAQQNSKAKQEQARRFRSRRDINPMKIDEALRQLKAAAKNEQVLTLKLQRITSNMIIERKQWISWYEEWIRSSIKEFTLRKIEYERKKLTLLERVRSDIRKADENGGLSRLGRHAVSNNNSDTSQTLKGDSWTGESNRKSQIPINKIAHTEFDDELFTEDDGYNSQDSDTTSLNARHAASLLGMSTK
binds,binds,GGGGGKKIINEEINLDSLGGC([maleimide-Alexa‑547]) (reading uncertain) [Ear1^547 (fluorescent Alexa-547-labelled Ear1 peptide)]
